Data reported in paper PMC4529466, “Intradermal insulin infusion achieves faster insulin action than subcutaneous infusion for 3-day wear” (Drug Delivery and Translational Research, 2015).

Test: VAS self-rated pain perception of bolus delivery and daily infusion
Type: in vivo, human (T1DM patients)
Details: ID compared to SC infusion
Protocol: Patients rated bolus-associated pain immediately after insulin delivery for both meals and again each evening at approximately 6 PM after completion of the morning dosing and sampling cycles to rate overall discomfort from the infusion process during the preceding 24 h. The visual analog scale (VAS) utilized a standard validated 10-cm scale anchored by “no pain” (score 0) and “severe pain” (score 10) without inclusion of additional numerical or verbal descriptors to avoid clustering of scores around intermediate points. Scores were measured as absolute distant from origin. Within 1 h prior to device removal, patients completed a non-validated user acceptability questionnaire consisting of a set of standard multiple choice closed-ended questions covering acceptability of sensations for infusion sets application and operation, set satisfaction, willingness to use the respective infusion set again, and set preference. Responses were restricted to a 5-point scale generally ranging from extreme agreement/satisfaction to extreme disagreement/satisfaction depending upon the question. […]
Pharmacokinetic parameters were derived from baseline corrected blood insulin data. […] PK and PD endpoints were analyzed using a linear mixed effects model (ANOVA) with sequence, application route, meal, and day as factors along with interactions. […]

Substance: insulin aspart
- VAS self-rated pain: statistically greater for ID compared to SC infusion
